This note sets out measurements from the supplement of paper PMC9112550, “Optimization of the antimicrobial peptide Bac7 by deep mutational scanning” (BMC Biology, 2022).
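Note: peptides expressed intracellularly from a pBAD plasmid library in pooled LB shake-flask culture, induced with 0.3% L-arabinose, DNA abundance read by NGS, three biological replicates, DESeq2 with apeglm shrinkage.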

The subject of this data set is Escherichia coli TOP10. The data set is described as follows: shrunken log2 fold change of peptide-encoding DNA abundance (4.5 h post-induction vs induction); higher = less antimicrobial activity (less host growth inhibition). To be noted: time post-induction: 4.5 h; library: site-saturation at positions 5, 18, 19, 20.
With RRIRGRPPRLPRPRPRPSPIPRP, the “shrunken log2 fold change” value was found to be 0.411.

With RRIRTRPPRLPRPRPRPTMSPRP, the “shrunken log2 fold change” value is -0.163.

For the sequence RRIRNRPPRLPRPRPRPYMVPRP, the “shrunken log2 fold change” value is -0.107.

For RRIRTRPPRLPRPRPRPNCAPRP, the “shrunken log2 fold change” value was -0.254.

In the case of RRIRERPPRLPRPRPRPDVWPRP, the “shrunken log2 fold change” value is 0.0561.

With RRIRSRPPRLPRPRPRPCPGPRP, the “shrunken log2 fold change” value was -0.234.

Consider RRIRNRPPRLPRPRPRPHWFPRP, for which the “shrunken log2 fold change” value was -0.318.

For the sequence RRIRIRPPRLPRPRPRPKSSPRP, the “shrunken log2 fold change” value is -0.143.

As for RRIRVRPPRLPRPRPRPSMAPRP, the “shrunken log2 fold change” value is -0.0698.

RRIRQRPPRLPRPRPRPDAEPRP: the “shrunken log2 fold change” value worked out at 0.105.

As to RRIRKRPPRLPRPRPRPSNMPRP, the “shrunken log2 fold change” value is -0.327.

On to RRIRFRPPRLPRPRPRPKFRPRP, for which the “shrunken log2 fold change” value is -0.0326.

RRIRKRPPRLPRPRPRPQQNPRP: the “shrunken log2 fold change” value stood at 0.157.

For the sequence RRIRNRPPRLPRPRPRPNPPPRP, the “shrunken log2 fold change” value is 0.143.

Turning to RRIRMRPPRLPRPRPRPRMNPRP, the “shrunken log2 fold change” value is -0.138.

As to RRIRFRPPRLPRPRPRPKKYPRP, the “shrunken log2 fold change” value is -0.242.

For the sequence RRIRGRPPRLPRPRPRPAHIPRP, the “shrunken log2 fold change” value came to 0.0667.

Turning to RRIRQRPPRLPRPRPRPEPEPRP, the “shrunken log2 fold change” value was 0.813.

Consider RRIRWRPPRLPRPRPRPGRVPRP, for which the “shrunken log2 fold change” value is 0.37.

Take RRIRYRPPRLPRPRPRPHHVPRP: the “shrunken log2 fold change” value is -0.00992.

As to RRIRWRPPRLPRPRPRPDQCPRP, the “shrunken log2 fold change” value came out at 0.25.

Take RRIRSRPPRLPRPRPRPVYCPRP: the “shrunken log2 fold change” value was -0.138.

Consider RRIRIRPPRLPRPRPRPHYTPRP, for which the “shrunken log2 fold change” value was -0.591.

On to RRIRSRPPRLPRPRPRPCYMPRP, for which the “shrunken log2 fold change” value is -0.562.

RRIRARPPRLPRPRPRPAMCPRP: the “shrunken log2 fold change” value amounted to 0.303.

With RRIRMRPPRLPRPRPRPIRGPRP, the “shrunken log2 fold change” value is -0.00871.

Turning to RRIRIRPPRLPRPRPRPVPSPRP, the “shrunken log2 fold change” value is -0.217.

Consider RRIRFRPPRLPRPRPRPIPLPRP, for which the “shrunken log2 fold change” value is -0.483.

Regarding RRIRERPPRLPRPRPRPWGHPRP, the “shrunken log2 fold change” value is -0.118.

Turning to RRIRKRPPRLPRPRPRPPHAPRP, the “shrunken log2 fold change” value was 0.728.

Regarding RRIRPRPPRLPRPRPRPDIQPRP, the “shrunken log2 fold change” value was -0.222.

As for RRIRIRPPRLPRPRPRPAHFPRP, the “shrunken log2 fold change” value worked out at 0.0262.

As for RRIRRRPPRLPRPRPRPSSRPRP, the “shrunken log2 fold change” value was -0.00108.

Turning to RRIRVRPPRLPRPRPRPGKAPRP, the “shrunken log2 fold change” value is -0.00584.

On to RRIRWRPPRLPRPRPRPHVWPRP, for which the “shrunken log2 fold change” value worked out at 0.126.

As to RRIRGRPPRLPRPRPRPENGPRP, the “shrunken log2 fold change” value turned out to be 0.223.

For RRIRPRPPRLPRPRPRPKRGPRP, the “shrunken log2 fold change” value was determined as 0.484.

Regarding RRIRFRPPRLPRPRPRPGMKPRP, the “shrunken log2 fold change” value was -0.0551.

For the sequence RRIRGRPPRLPRPRPRPQYWPRP, the “shrunken log2 fold change” value amounted to 0.122.

RRIRERPPRLPRPRPRPKDDPRP: the “shrunken log2 fold change” value amounted to 0.104.

Consider RRIRTRPPRLPRPRPRPCIIPRP, for which the “shrunken log2 fold change” value was -0.0804.

As to RRIRGRPPRLPRPRPRPLGKPRP, the “shrunken log2 fold change” value was found to be 0.362.

Regarding RRIRSRPPRLPRPRPRPDSCPRP, the “shrunken log2 fold change” value is -0.0234.

As to RRIRWRPPRLPRPRPRPNPWPRP, the “shrunken log2 fold change” value is 0.265.

On to RRIRDRPPRLPRPRPRPAPSPRP, for which the “shrunken log2 fold change” value amounted to 0.367.

As for RRIRFRPPRLPRPRPRPDNIPRP, the “shrunken log2 fold change” value is -0.269.

RRIRFRPPRLPRPRPRPEWLPRP: the “shrunken log2 fold change” value was 0.402.

Turning to RRIRKRPPRLPRPRPRPAPMPRP, the “shrunken log2 fold change” value came to 0.769.

With RRIRFRPPRLPRPRPRPWWRPRP, the “shrunken log2 fold change” value was -0.471.

As to RRIRVRPPRLPRPRPRPSTTPRP, the “shrunken log2 fold change” value is -0.0817.

RRIRRRPPRLPRPRPRPKTGPRP: the “shrunken log2 fold change” value worked out at 0.1.

On to RRIRHRPPRLPRPRPRPAPAPRP, for which the “shrunken log2 fold change” value is 0.289.

RRIRARPPRLPRPRPRPYSNPRP: the “shrunken log2 fold change” value was -0.781.

Take RRIRQRPPRLPRPRPRPKTQPRP: the “shrunken log2 fold change” value was determined as 0.121.

Consider RRIRIRPPRLPRPRPRPISFPRP, for which the “shrunken log2 fold change” value was determined as 0.00109.

Consider RRIRKRPPRLPRPRPRPFWAPRP, for which the “shrunken log2 fold change” value stood at 0.659.

As for RRIRRRPPRLPRPRPRPQIWPRP, the “shrunken log2 fold change” value was 0.279.

Consider RRIRLRPPRLPRPRPRPVIPPRP, for which the “shrunken log2 fold change” value is -0.0331.

On to RRIRMRPPRLPRPRPRPMNNPRP, for which the “shrunken log2 fold change” value is -0.411.

Take RRIRSRPPRLPRPRPRPADCPRP: the “shrunken log2 fold change” value came to 0.0938.

For RRIRYRPPRLPRPRPRPEGDPRP, the “shrunken log2 fold change” value was -0.00396.

Regarding RRIRMRPPRLPRPRPRPMASPRP, the “shrunken log2 fold change” value was 0.00888.

In the case of RRIRPRPPRLPRPRPRPRWNPRP, the “shrunken log2 fold change” value came out at 0.115.

In the case of RRIRMRPPRLPRPRPRPCPHPRP, the “shrunken log2 fold change” value is 0.0961.

With RRIRPRPPRLPRPRPRPIHFPRP, the “shrunken log2 fold change” value is -0.241.

For the sequence RRIRLRPPRLPRPRPRPGQSPRP, the “shrunken log2 fold change” value worked out at 0.0614.

For RRIRARPPRLPRPRPRPGWRPRP, the “shrunken log2 fold change” value is 0.473.

For RRIRTRPPRLPRPRPRPCKNPRP, the “shrunken log2 fold change” value is -0.33.

In the case of RRIRCRPPRLPRPRPRPACCPRP, the “shrunken log2 fold change” value worked out at 0.306.

Consider RRIRVRPPRLPRPRPRPEYMPRP, for which the “shrunken log2 fold change” value is -0.305.

Consider RRIRVRPPRLPRPRPRPVDQPRP, for which the “shrunken log2 fold change” value was -0.0903.

For RRIRVRPPRLPRPRPRPGANPRP, the “shrunken log2 fold change” value is 0.222.

On to RRIRPRPPRLPRPRPRPRSAPRP, for which the “shrunken log2 fold change” value was 0.497.

On to RRIRNRPPRLPRPRPRPQNQPRP, for which the “shrunken log2 fold change” value was -0.212.

As to RRIRARPPRLPRPRPRPFNWPRP, the “shrunken log2 fold change” value amounted to 0.0857.

Consider RRIRCRPPRLPRPRPRPWGDPRP, for which the “shrunken log2 fold change” value was -0.142.

As for RRIRARPPRLPRPRPRPDCDPRP, the “shrunken log2 fold change” value came out at 0.214.

As for RRIRVRPPRLPRPRPRPCGHPRP, the “shrunken log2 fold change” value was 0.0386.

Consider RRIRHRPPRLPRPRPRPWCRPRP, for which the “shrunken log2 fold change” value is -0.352.

With RRIRNRPPRLPRPRPRPGQMPRP, the “shrunken log2 fold change” value is 0.00315.

For RRIRQRPPRLPRPRPRPCNMPRP, the “shrunken log2 fold change” value was found to be 0.00148.

With RRIRMRPPRLPRPRPRPVVPPRP, the “shrunken log2 fold change” value was -0.107.

As for RRIRGRPPRLPRPRPRPPSCPRP, the “shrunken log2 fold change” value is 0.654.

On to RRIRPRPPRLPRPRPRPRPYPRP, for which the “shrunken log2 fold change” value is 0.173.

Consider RRIRQRPPRLPRPRPRPVLHPRP, for which the “shrunken log2 fold change” value is -0.149.

With RRIRQRPPRLPRPRPRPGHAPRP, the “shrunken log2 fold change” value stood at 0.116.

Consider RRIRIRPPRLPRPRPRPPWRPRP, for which the “shrunken log2 fold change” value was 0.507.

For RRIRDRPPRLPRPRPRPCIWPRP, the “shrunken log2 fold change” value was found to be 0.033.

Regarding RRIRQRPPRLPRPRPRPKIEPRP, the “shrunken log2 fold change” value was -0.32.

Take RRIRHRPPRLPRPRPRPDHLPRP: the “shrunken log2 fold change” value was -0.0237.

With RRIRARPPRLPRPRPRPAHWPRP, the “shrunken log2 fold change” value turned out to be 0.535.

RRIRDRPPRLPRPRPRPEVHPRP: the “shrunken log2 fold change” value came out at 0.168.

Regarding RRIRNRPPRLPRPRPRPMYHPRP, the “shrunken log2 fold change” value was -0.248.

With RRIRCRPPRLPRPRPRPRGSPRP, the “shrunken log2 fold change” value amounted to 0.511.

Turning to RRIRRRPPRLPRPRPRPRLYPRP, the “shrunken log2 fold change” value was -0.00733.

Take RRIRLRPPRLPRPRPRPDKYPRP: the “shrunken log2 fold change” value is -0.769.

Take RRIRCRPPRLPRPRPRPLFCPRP: the “shrunken log2 fold change” value was -0.442.

Turning to RRIRWRPPRLPRPRPRPDIQPRP, the “shrunken log2 fold change” value came out at 0.27.

On to RRIRFRPPRLPRPRPRPMDTPRP, for which the “shrunken log2 fold change” value is -0.165.

As to RRIRKRPPRLPRPRPRPDWCPRP, the “shrunken log2 fold change” value was found to be 0.292.

On to RRIRERPPRLPRPRPRPARFPRP, for which the “shrunken log2 fold change” value is 0.168.

In the case of RRIRFRPPRLPRPRPRPHWDPRP, the “shrunken log2 fold change” value is -0.21.

RRIRNRPPRLPRPRPRPTAKPRP: the “shrunken log2 fold change” value is -0.136.

As for RRIRRRPPRLPRPRPRPYDSPRP, the “shrunken log2 fold change” value is -0.545.

RRIRHRPPRLPRPRPRPHRRPRP: the “shrunken log2 fold change” value was 0.0762.

For RRIRMRPPRLPRPRPRPKKCPRP, the “shrunken log2 fold change” value turned out to be 0.959.

Regarding RRIRNRPPRLPRPRPRPQWRPRP, the “shrunken log2 fold change” value was determined as 0.179.

With RRIRSRPPRLPRPRPRPHTRPRP, the “shrunken log2 fold change” value was -0.453.

Turning to RRIRGRPPRLPRPRPRPFYQPRP, the “shrunken log2 fold change” value was 0.0158.

In the case of RRIRQRPPRLPRPRPRPWFCPRP, the “shrunken log2 fold change” value is -0.282.

Consider RRIRARPPRLPRPRPRPGSLPRP, for which the “shrunken log2 fold change” value came out at 0.056.

Consider RRIRYRPPRLPRPRPRPMVMPRP, for which the “shrunken log2 fold change” value is -0.0337.

As to RRIRGRPPRLPRPRPRPSKRPRP, the “shrunken log2 fold change” value stood at 0.231.

RRIRDRPPRLPRPRPRPMGGPRP: the “shrunken log2 fold change” value came to 0.0169.

Take RRIRRRPPRLPRPRPRPSAVPRP: the “shrunken log2 fold change” value is 0.368.

For RRIRCRPPRLPRPRPRPINQPRP, the “shrunken log2 fold change” value is -0.485.

With RRIRKRPPRLPRPRPRPRRHPRP, the “shrunken log2 fold change” value came out at 0.523.

With RRIRKRPPRLPRPRPRPYAAPRP, the “shrunken log2 fold change” value was -0.102.

As for RRIRQRPPRLPRPRPRPQSMPRP, the “shrunken log2 fold change” value was -0.395.

For RRIRARPPRLPRPRPRPTMIPRP, the “shrunken log2 fold change” value came out at 0.00226.

Consider RRIRNRPPRLPRPRPRPAVEPRP, for which the “shrunken log2 fold change” value was -0.0887.

As to RRIRNRPPRLPRPRPRPHKWPRP, the “shrunken log2 fold change” value is -0.285.

Turning to RRIRHRPPRLPRPRPRPKNYPRP, the “shrunken log2 fold change” value was -0.766.

In the case of RRIRFRPPRLPRPRPRPYQEPRP, the “shrunken log2 fold change” value is -0.0819.

Consider RRIRGRPPRLPRPRPRPFLHPRP, for which the “shrunken log2 fold change” value was found to be 0.0811.
